# According to patent US20250388678A1, “Methods, Combinations, and Uses for the Treatment of Muscle Invasive Bladder Cancer” (AstraZeneca AB, priority 2024, published 2025):
# Key:
# PD-L1 = PD-L1 (Homo sapiens, UniProt Q9NZQ7); details: in vitro; cited from earlier work
# [1] = test system: muscle-invasive bladder cancer; test: NIAGARA phase III study: pathological complete response (pCR) at radical cystectomy; type: in vivo, human
# Experimental: (§1) Dual primary efficacy endpoints evaluated in this study were event-free survival (EFS; per blinded independent central review [BICR]) and pathological complete response (pCR; evaluated centrally). Therefore, if either the EFS endpoint or pCR endpoint was achieved, the study was considered a success.
# Primary tumors and sampled lymph nodes were assessed for pathological response to neoadjuvant treatment by central pathology review using recommendations from the IASLC.
# pCR efficacy assessment was accomplished by pathological review of radical cystectomy samples. EFS efficacy assessment were assessed by either RECIST 1.1 on imaging scans by pathology on biopsy samples if required.
# [2] = test system: muscle-invasive bladder cancer; test: NIAGARA phase III study: survival efficacy endpoints (EFS, OS, MFS, DSS, DFS); type: in vivo, human
# Source text: The NIAGARA (NCT03732677) study described herein is a phase III, randomized, open-label, multi-center global study of durvalumab in combination with neoadjuvant gemcitabine+cisplatin before cystectomy (surgery to remove the bladder) followed by durvalumab as adjuvant monotherapy in patients with histologically or cytologically documented, resectable muscle-invasive bladder cancer and transitional cell carcinoma of the urothelium.
# The study enrolled 1530 patients and randomized 1063 of those the patients in a 1:1 ratio to receive durvalumab+Gemcitabine+Cisplatin (D+G+C) combination therapy every three weeks (q3w) (Arm 1) or G+C combination therapy q3w (Arm 2) for 4 cycles of neoadjuvant chemotherapy prior to radical cystectomy. Patients started adjuvant durvalumab or placebo administration following surgery as soon as clinically feasible and within 42-120 days following surgery from surgery. Following radical cystectomy and during adjuvant therapy, patients in Arm 1 received durvalumab monotherapy every 4 weeks (q4w) for 8 additional cycles, and patients in Arm 2 received no adjuvant treatment.
# Patients received a combination therapy comprising 1500 mg durvalumab or placebo via intravenous (IV) infusion q3w for up to a maximum of 4 cycles prior to surgery and a platinum therapy consisting of cisplatin and gemcitabine, the dose dependent on renal function. Patients having a creatinine clearance rate of about ≥60 mL/min, were administered cisplatin at a dose of about 70 mg/m^2 on day 1 of each cycle; and (b) gemcitabine at a dose of about 1000 mg/m^2 on days 1 and 8 of each cycle every 3 weeks (q3w) for a total of four cycles. Patients having a creatinine clearance rate of about ≥40 mL/min to <60 mL/min, were administered cisplatin at a dose of about 70 mg/m^2 on day 1 of each cycle; and (b) gemcitabine at a dose of about 1000 mg/m^2 on days 1 and 8 of each cycle every 3 weeks (q3w) for a total of four cycles.
# A radical cystectomy was performed as soon as possible after completion of fourth administration of the combination therapy. The radical cystectomy was performed between […] following the last administration of the combination therapy. Male patients underwent radial cytoprostatectomy and urinary diversion along with bilateral pelvic lymph node dissection. Female patients underwent radical cystectomy. Elective hysterectomy and bilateral salpingectomy was optionally performed if no gross evidence of oncologic involvement was noted by the surgeon. Oophorectomy was omitted if clinically indicated. A urinary diversion creation was established via an ileal conduit, ileal neobladder, Indiana Pouch, or as per local practice. Bilateral pelvic lymph node dissection included following template to include the 1) external iliac, 2) obturator, and 3) internal iliac nodes, and 4) common iliac nodes to the level of the ureteric crossing and included a lymph node classified as cN1 at baseline if one was present. Removal of other nodes is per the surgeon's discretion. The boundaries of the template were the circumflex iliac vein and Cloquet's node, laterally by the genitofemoral nerve, medially by the bladder, posteriorly by the obturator fossa, and proximally to the ureter. Radical cystectomy was mandatory study procedure for all patients unless a patient is only able to undergo a partial cystectomy.
# as §1
# Secondary endpoints included overall survival (OS), and evaluation of the primary outcome in the PD-L1 high subgroup; pharmacokinetics and immunogenicity; patient-reported outcomes; and safety. […]
# xenograft model = details: via a T-cell dependent mechanism; cited from earlier work
# [3] = NIAGARA phase III study: adverse events and immune-mediated adverse events; type: in vivo
# Source text: Adverse Events (AEs), Serious Adverse Events (SAE), and immune-mediated adverse events (imAE) were collected from the time of the patient signing the informed consent form until follow-up period as completed (90 days after last dose of treatment (Arm 1) or adjuvant phase study visits (Arm 2). Tables 3 and 4 outline the variables collected for adverse events and severe adverse events.
# AESIs for durvalumab include but are not limited to events with a potential inflammatory or immune-mediated mechanism and which may require more frequent monitoring and/or interventions such as steroids, immunosuppressants, and/or hormone replacement therapy. These AESIs are closely monitored in clinical studies with durvalumab monotherapy and combination therapy. An imAE is defined as an AESI that is associated with drug exposure, required the use of systemic steroids or other immunosuppressants and/or endocrine therapy for specific endocrine events, is consistent with an immune-mediated MOA, and where there is no clear alternate etiology.
# Serologic, immunologic, and histologic (biopsy) data, as appropriate, were used to support an imAE diagnosis. Appropriate efforts were made to rule out neoplastic, infectious, metabolic, toxin, or other etiologic causes of the imAE.
# The overall safety profile is consistent with the known safety profile of durvalumab and chemotherapy. The addition of durvalumab to chemotherapy had no detrimental impact on backbone chemotherapy administration. AEs leading to treatment discontinuation in neoadjuvant phase were balanced between the two arms. The number of patients not undergoing radical surgery because of AEs due to neoadjuvant treatment was balanced in both arms. Rates of grade 3 or 4 AEs and AEs with outcome of death were similar between the two arms (See Table 6). The overall study period included AEs that occurred between the first dose of study treatment, and whichever occurred first: 1) 90 days after the last dose of treatment, surgery, or last adjuvant visit; 2) date of first dose of subsequent anti-cancer therapy; or 3) data cut-off date.
# [4] = durvalumab arm vs comparator arm
# [5] = ITT, durvalumab arm vs comparator arm
# [6] = ITT, of 533 (durvalumab arm) / 530 (comparator arm)
# [7] = non-pCR subgroup, durvalumab vs comparator, exploratory post hoc
# [8] = pCR subgroup, durvalumab vs comparator, exploratory post hoc
# [9] = patients with radical cystectomy and post-RC baseline scan, vs comparator arm
# [10] = Safety Analysis Set, number of patients
# Chain of PD-L1 (Q9NZQ7 19-290): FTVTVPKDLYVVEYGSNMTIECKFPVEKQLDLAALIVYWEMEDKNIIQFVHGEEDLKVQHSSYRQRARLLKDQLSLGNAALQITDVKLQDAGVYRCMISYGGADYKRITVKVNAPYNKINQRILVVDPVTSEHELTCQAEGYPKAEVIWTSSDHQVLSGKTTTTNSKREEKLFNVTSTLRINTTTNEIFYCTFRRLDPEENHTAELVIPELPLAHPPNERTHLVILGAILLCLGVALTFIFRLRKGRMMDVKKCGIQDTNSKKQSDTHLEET
substance,measurement,setting,value
"Durvalumab: antibody that selectively binds PD-L1; trial arm: durvalumab+gemcitabine+cisplatin before radical cystectomy, then adjuvant durvalumab monotherapy",effect on PD-L1-mediated suppression of human T-cell activation,PD-L1,relieve PD-L1-mediated suppression of human T-cell activation
same,patients with pCR at the time of the radical cystectomy,[1]; ITT,37.3%
same,difference in pCR with durvalumab in addition to chemotherapy,[1]; [4],~10%
same,pCR odds ratio,[1]; [4],1.60
same,pCR rates among patients that underwent RC,"[1]; durvalumab arm=469 patients, comparator arm=441 patients",increased
same,"death from bladder cancer, percent of patients",[2]; ITT,15.9%
same,"patients with distant metastases or death (MFS events), percent",[2]; ITT,28.5%
same,EFS Hazard Ratio (HR),"[2]; ITT population, durvalumab+cisplatin+gemcitabine vs cisplatin+gemcitabine, BICR, DCO April 2024",0.68
same,probability of 24-month metastasis-free survival,"[2]; ITT, 24 months",75.1%
same,disease-specific survival hazard ratio (HR),[2]; [5],0.69
same,metastasis-free survival hazard ratio (HR),[2]; [5],0.67
same,reduction in risk of death from bladder cancer (disease-specific survival),[2]; [5],31%
same,reduction in the relative risk of death from any cause (OS),[2]; [5],25%
same,reduction in risk of developing a distant metastasis or dying (metastasis-free survival),"[2]; ITT, durvalumab arm vs comparator arm, greater than 40 month follow-up",33%
same,OS hazard ratio (HR),"[2]; ITT, durvalumab arm vs comparator arm, interim analysis",0.75
same,"death from bladder cancer, number of patients",[2]; [6],85 patients
same,"patients with distant metastases or death (MFS events), number",[2]; [6],152 patients
same,24-month probability of disease-free survival,"[2]; ITT, under heading Disease Specific Survival, 24 months",89.2%
same,24-month EFS rate,[2]; Non-pCR subgroup,53%
same,24-month OS rate,[2]; Non-pCR subgroup,74%
same,"DFS HR, non-pCR group","[2]; non-pCR group, vs comparator arm, exploratory post hoc",0.82
same,"reduction in relative risk tumor growth, tumor spreading, not undergoing surgery or dying",[2]; non-pCR patients,23%
same,reduction in the relative risk of dying from any cause,[2]; non-pCR patients,16%
same,"EFS HR, non-pCR patients",[2]; [7],0.77
same,"OS HR, non-pCR patients",[2]; [7],0.84
same,"DFS HR, pCR group","[2]; pCR group, vs comparator arm, exploratory post hoc",0.58
same,24-month EFS rate,[2]; pCR subgroup,92%
same,24-month OS rate,[2]; pCR subgroup,96%
same,"EFS HR, patients with pCR",[2]; [8],0.58
same,"OS HR, patients with pCR",[2]; [8],0.72
same,reduction in the relative risk of dying from any cause,[2]; patients achieving pCR,28%
same,"reduction in relative risk of tumor growth, tumor spreading, not undergoing surgery or dying",[2]; patients that achieved pCR,42%
same,DFS hazard ratio (HR),[2]; [9],0.69
same,reduced risk of disease recurrence or death (DFS),[2]; [9],31%
same,"DFS HR, divergent or other histologic subtypes","[2]; total n=103, vs comparator arm",0.45
same,effect on tumor growth in a xenograft model,xenograft model,inhibits tumor growth
same,Anemia (%),[3]; Safety Analysis Set,(38.7) %
same,Asthenia (%),[3]; Safety Analysis Set,(17.5) %
same,Blood creatinine increased (%),[3]; Safety Analysis Set,(18.5) %
same,Constipation (%),[3]; Safety Analysis Set,(38.7) %
same,Decreased appetite (%),[3]; Safety Analysis Set,(26.6) %
same,Diarrhea (%),[3]; Safety Analysis Set,(20.6) %
same,Fatigue (%),[3]; Safety Analysis Set,(36.0) %
same,Nausea (%),[3]; Safety Analysis Set,(53.6) %
same,Neutropenia (%),[3]; Safety Analysis Set,(25.8) %
same,Neutrophil count decreased (%),[3]; Safety Analysis Set,(15.3) %
same,Patients with any AE (%),[3]; Safety Analysis Set,(99.4) %
same,Pruritis (%),[3]; Safety Analysis Set,(15.1) %
same,Pyrexia (%),[3]; Safety Analysis Set,(20.8) %
same,Urinary tract infection (%),[3]; Safety Analysis Set,(30.0) %
same,Vomiting (%),[3]; Safety Analysis Set,(19.2) %
same,"Anemia, number",[3]; [10],205
same,"Asthenia, number",[3]; [10],93
same,"Blood creatinine increased, number",[3]; [10],98
same,"Constipation, number",[3]; [10],205
same,"Decreased appetite, number",[3]; [10],141
same,"Diarrhea, number",[3]; [10],109
same,"Fatigue, number",[3]; [10],191
same,"Nausea, number",[3]; [10],284
same,"Neutropenia, number",[3]; [10],137
same,"Neutrophil count decreased, number",[3]; [10],81
same,"Patients with any AE, number",[3]; [10],527
same,"Pruritis, number",[3]; [10],80
same,"Pyrexia, number",[3]; [10],110
same,"Urinary tract infection, number",[3]; [10],159
same,"Vomiting, number",[3]; [10],102
same,"AEs leading to discontinuation of NAC, %",[3]; in vivo,(13.6) %
same,"AEs leading to discontinuation of adjuvant durvalumab, %",[3]; in vivo,(7.8) %
same,"AEs leading to discontinuation of neoadjuvant durvalumab, %",[3]; in vivo,(9.4) %
same,"AEs leading to patient not undergoing RC, %",[3]; in vivo,(1.1) %
same,"additional imAEs: dermatitis/rash, renal events, diarrhea/colitis, pneumonitis (each)",[3]; in vivo,≤ 2%
same,imAE hyperthyroid events,[3]; in vivo,3%
same,imAE hypothyroid events,[3]; in vivo,10%
same,"imAEs resolved at data cutoff, number of patients",[3]; of 111 (durvalumab arm) / 16 (comparator arm),45 patients
same,"imAEs reported, number of patients",[3]; of 530 (durvalumab arm) / 526 (comparator arm),111 patients
same,"imAEs resolved at data cutoff, percent of patients",[3]; of patients with imAEs,41%
same,"AEs leading to delay in surgery, %",[3]; outside recommended timeframe for RC of 56 days after last dose of NAC,(2.0) %
same,"AEs leading to discontinuation of study treatment, %",[3]; overall study period,(21) %
same,"AEs possibly related to any treatment: Max grade 3 or 4, %",[3]; overall study period,(40.6) %
same,"AEs possibly related to any treatment: Outcome of death, %",[3]; overall study period,(0.6) %
same,"AEs with outcome of death, %",[3]; overall study period,(5.1) %
same,"Any-grade AEs possibly related to any treatment, %",[3]; overall study period,(94.7) %
same,"Any-grade AEs, %",[3]; overall study period,(99.4) %
same,"Any-grade AEs: Max grade 3 or 4, %",[3]; overall study period,(69.4) %
same,"SAEs, %",[3]; overall study period,(61.5) %
same,imAEs grade 3/4,[3]; overall study period,3%
same,"imAEs reported, percent of patients","[3]; overall study period, any grade",21%
